This note sets out measurements from publication PMC4197836.

Like-named read-outs stand apart in the source and are kept apart here.

Holding throughout (assay): AlphaScreen or HTRF
In general terms: In Alpha technology, singlet oxygen from a donor bead excites a nearby acceptor bead.

Assay [1] has as its target His6-tagged MLV IN (Moloney Murine Leukemia Virus).
Assay [2] has the same target. This is another data set of the same source.
For assay [3], the target named is GST-tagged mBRD4ET (aa 601-685) (mouse) (UniProt Q9ESU6).

Chain of His6-tagged MLV IN (Moloney Murine Leukemia Virus) (P03355 1331-1738 limits assumed): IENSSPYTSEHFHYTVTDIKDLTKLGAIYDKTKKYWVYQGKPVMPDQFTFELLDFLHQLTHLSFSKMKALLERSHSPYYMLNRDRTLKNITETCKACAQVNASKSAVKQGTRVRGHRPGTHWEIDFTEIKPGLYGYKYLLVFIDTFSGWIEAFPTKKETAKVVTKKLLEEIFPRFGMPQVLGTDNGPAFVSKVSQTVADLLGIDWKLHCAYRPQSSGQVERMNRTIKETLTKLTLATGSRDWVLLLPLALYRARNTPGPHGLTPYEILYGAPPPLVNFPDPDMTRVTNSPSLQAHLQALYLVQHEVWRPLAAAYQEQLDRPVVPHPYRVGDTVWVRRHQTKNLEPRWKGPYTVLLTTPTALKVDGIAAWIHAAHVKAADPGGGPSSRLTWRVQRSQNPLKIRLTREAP

With “GST-tagged mBRD4_(ETSEED) (aa 601-721) (from UniProt Q9ESU6 601-721) (domain or fragment)”, the dissociation constant Kd in assay [1] amounted to 8.56 nM; in assay [2] it was 58.7 nM.

For the substance “GST-tagged mBRD4ET (aa 601-685) (from UniProt Q9ESU6 601-685) (domain or fragment)”, the Kd in assay [1] worked out at 58.7 nM; in assay [2], 8.56 nM.

The substance His6-tagged MLV IN (enzyme) yielded a dissociation constant Kd in assay [3] of 56.7 nM.

Substance “MBP-fused BRD2 ET domain (domain or fragment)” gave a dissociation constant (Kd) in assay [2] of 0.6 nM.

In assay [2], “MBP-fused BRD4 ET domain (domain or fragment)” showed a Kd of 0.41 nM.

Regarding “MBP-fused BRD3 ET domain (domain or fragment)”, the Kd in assay [2] was found to be 0.97 nM.

By Kd is commonly meant the constant that tells how readily two partners part at equilibrium.
